Measurements as given in the supplement of paper PMC9112550, “Optimization of the antimicrobial peptide Bac7 by deep mutational scanning” (BMC Biology, 2022).

Tested on: Escherichia coli TOP10
Test: shrunken log2 fold change of peptide-encoding DNA abundance (4.5 h post-induction vs induction); higher = less antimicrobial activity (less host growth inhibition)
Details: time post-induction: 4.5 h; library: site-saturation at positions 5, 18, 19, 20
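Note: peptides expressed intracellularly from a pBAD plasmid library in pooled LB shake-flask culture, induced with 0.3% L-arabinose, DNA abundance read by NGS, three biological replicates, DESeq2 with apeglm shrinkage.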

Row | Sequence | shrunken log2 fold change
1 | RRIRCRPPRLPRPRPRPRAPPRP | 0.87
2 | RRIRLRPPRLPRPRPRPVEFPRP | 0.0713
3 | RRIRDRPPRLPRPRPRPPRMPRP | 0.345
4 | RRIRQRPPRLPRPRPRPCDVPRP | -0.15
5 | RRIRSRPPRLPRPRPRPYMDPRP | -0.326
6 | RRIRYRPPRLPRPRPRPVWLPRP | -0.0438
7 | RRIRKRPPRLPRPRPRPNHPPRP | 0.0844
8 | RRIRGRPPRLPRPRPRPQSNPRP | 0.518
9 | RRIRQRPPRLPRPRPRPSCHPRP | -0.253
10 | RRIRHRPPRLPRPRPRPNMCPRP | -0.126
11 | RRIRHRPPRLPRPRPRPFRPPRP | -0.188
12 | RRIRRRPPRLPRPRPRPHYGPRP | -0.178
13 | RRIRARPPRLPRPRPRPPKSPRP | 0.658
14 | RRIRTRPPRLPRPRPRPNYAPRP | 0.0202
15 | RRIRIRPPRLPRPRPRPYPWPRP | -1.06
16 | RRIRFRPPRLPRPRPRPDMCPRP | 0.124
17 | RRIRARPPRLPRPRPRPGWVPRP | 0.29
18 | RRIRNRPPRLPRPRPRPPVGPRP | 0.444
19 | RRIRIRPPRLPRPRPRPKVWPRP | -0.0123
20 | RRIRGRPPRLPRPRPRPGDGPRP | 0.895
21 | RRIRARPPRLPRPRPRPCNVPRP | -0.0688
22 | RRIRPRPPRLPRPRPRPATQPRP | 0.133
23 | RRIRHRPPRLPRPRPRPFRCPRP | -0.556
24 | RRIRTRPPRLPRPRPRPTIPPRP | -0.198
25 | RRIRYRPPRLPRPRPRPCPCPRP | 0.0185

Row | Sequence | shrunken log2 fold change
26 | RRIRIRPPRLPRPRPRPDQKPRP | -0.0112
27 | RRIRERPPRLPRPRPRPHFAPRP | -0.0634
28 | RRIRFRPPRLPRPRPRPQQVPRP | 0.0179
29 | RRIRYRPPRLPRPRPRPLWHPRP | -0.48
30 | RRIRVRPPRLPRPRPRPDDMPRP | -0.239
31 | RRIRQRPPRLPRPRPRPYFYPRP | -0.652
32 | RRIRMRPPRLPRPRPRPMKMPRP | 0.803
33 | RRIRFRPPRLPRPRPRPDRYPRP | -0.0446
34 | RRIRRRPPRLPRPRPRPPAAPRP | 0.947
35 | RRIRVRPPRLPRPRPRPRGCPRP | 0.374
36 | RRIRRRPPRLPRPRPRPDFIPRP | 0.0171
37 | RRIRIRPPRLPRPRPRPMHRPRP | -0.262
38 | RRIRARPPRLPRPRPRPIGAPRP | 0.716
39 | RRIRTRPPRLPRPRPRPPIRPRP | -0.1
40 | RRIRSRPPRLPRPRPRPTPKPRP | 0.697
41 | RRIRGRPPRLPRPRPRPQSAPRP | 0.629
42 | RRIRWRPPRLPRPRPRPRVMPRP | 0.275
43 | RRIRCRPPRLPRPRPRPQHMPRP | -0.74
44 | RRIRIRPPRLPRPRPRPERPPRP | 0.285
45 | RRIRGRPPRLPRPRPRPRSYPRP | 0.288
46 | RRIRARPPRLPRPRPRPKLSPRP | 0.138
47 | RRIRLRPPRLPRPRPRPLWQPRP | -0.0523
48 | RRIRMRPPRLPRPRPRPFDRPRP | 0.00911
49 | RRIRPRPPRLPRPRPRPQAFPRP | -0.00213
50 | RRIRERPPRLPRPRPRPRPYPRP | -0.0326

Row | Sequence | shrunken log2 fold change
51 | RRIRERPPRLPRPRPRPCCSPRP | -0.52
52 | RRIRIRPPRLPRPRPRPWWPPRP | 0.027
53 | RRIRFRPPRLPRPRPRPAGQPRP | 0.171
54 | RRIRKRPPRLPRPRPRPTFHPRP | 0.136
55 | RRIRVRPPRLPRPRPRPFWYPRP | -0.308
56 | RRIRQRPPRLPRPRPRPLQSPRP | -0.0698
57 | RRIRRRPPRLPRPRPRPNMKPRP | 0.069
58 | RRIRARPPRLPRPRPRPLTQPRP | 0.209
59 | RRIRWRPPRLPRPRPRPPWIPRP | 1.44
60 | RRIRNRPPRLPRPRPRPPNMPRP | -0.101
61 | RRIRLRPPRLPRPRPRPANPPRP | -0.0638
62 | RRIRHRPPRLPRPRPRPWGTPRP | -0.44
63 | RRIRIRPPRLPRPRPRPGLDPRP | 0.0575
64 | RRIRNRPPRLPRPRPRPYFFPRP | -0.482
65 | RRIRMRPPRLPRPRPRPAMKPRP | -0.00492
66 | RRIRGRPPRLPRPRPRPEIEPRP | 1.37
67 | RRIRHRPPRLPRPRPRPIPAPRP | 0.32
68 | RRIRWRPPRLPRPRPRPFFSPRP | -0.101
69 | RRIRSRPPRLPRPRPRPPMPPRP | 0.486
70 | RRIRIRPPRLPRPRPRPHQRPRP | -0.137
71 | RRIRWRPPRLPRPRPRPAWLPRP | 0.61
72 | RRIRYRPPRLPRPRPRPKAQPRP | 0.35
73 | RRIRGRPPRLPRPRPRPWQRPRP | 0.0817
74 | RRIRPRPPRLPRPRPRPTLWPRP | 0.299
75 | RRIRHRPPRLPRPRPRPSVPPRP | -0.0518

Row | Sequence | shrunken log2 fold change
76 | RRIRERPPRLPRPRPRPYWVPRP | -0.338
77 | RRIRRRPPRLPRPRPRPRGGPRP | 0.509
78 | RRIRCRPPRLPRPRPRPKIVPRP | -0.29
79 | RRIRFRPPRLPRPRPRPVMYPRP | -0.195
80 | RRIRARPPRLPRPRPRPVVGPRP | 0.5
81 | RRIRSRPPRLPRPRPRPDICPRP | -0.0721
82 | RRIRNRPPRLPRPRPRPITLPRP | -0.229
83 | RRIRLRPPRLPRPRPRPPQEPRP | 0.0145
84 | RRIRFRPPRLPRPRPRPTFLPRP | -0.452
85 | RRIRLRPPRLPRPRPRPNNAPRP | -0.221
86 | RRIRCRPPRLPRPRPRPWKAPRP | 0.0231
87 | RRIRKRPPRLPRPRPRPSNAPRP | -0.154
88 | RRIRHRPPRLPRPRPRPSGLPRP | 0.0123
89 | RRIRKRPPRLPRPRPRPTMTPRP | 0.608
90 | RRIRLRPPRLPRPRPRPAFTPRP | 0.238
91 | RRIRSRPPRLPRPRPRPSEPPRP | -0.167
92 | RRIRHRPPRLPRPRPRPLFIPRP | -0.68
93 | RRIRKRPPRLPRPRPRPFEAPRP | 2.17
94 | RRIRQRPPRLPRPRPRPLLVPRP | -0.295
95 | RRIRFRPPRLPRPRPRPYGNPRP | -0.527
96 | RRIRSRPPRLPRPRPRPCTKPRP | -0.581
97 | RRIRIRPPRLPRPRPRPRKQPRP | -0.00244
98 | RRIRKRPPRLPRPRPRPPNMPRP | 0.0839
99 | RRIRSRPPRLPRPRPRPVWTPRP | 0.241
100 | RRIRKRPPRLPRPRPRPGYAPRP | 0.223

Row | Sequence | shrunken log2 fold change
101 | RRIRLRPPRLPRPRPRPWASPRP | -0.0355
102 | RRIRWRPPRLPRPRPRPRWWPRP | 0.0648
103 | RRIRIRPPRLPRPRPRPHSHPRP | -0.912
104 | RRIRHRPPRLPRPRPRPQDSPRP | -0.00865
105 | RRIRVRPPRLPRPRPRPMQKPRP | 0.533
106 | RRIRRRPPRLPRPRPRPHGWPRP | 0.784
107 | RRIRDRPPRLPRPRPRPSILPRP | 0.202
108 | RRIRLRPPRLPRPRPRPRFCPRP | -0.0895
109 | RRIRWRPPRLPRPRPRPIVSPRP | -0.000687
110 | RRIRKRPPRLPRPRPRPGNEPRP | 0.204
111 | RRIRNRPPRLPRPRPRPEDPPRP | 0.00956
112 | RRIRSRPPRLPRPRPRPKCVPRP | -0.138
113 | RRIRTRPPRLPRPRPRPKQIPRP | 0.0644
114 | RRIRIRPPRLPRPRPRPCWIPRP | -0.222
115 | RRIRHRPPRLPRPRPRPDMKPRP | -0.0644
116 | RRIRSRPPRLPRPRPRPDNYPRP | -0.303
117 | RRIRVRPPRLPRPRPRPNTTPRP | -0.227
118 | RRIRKRPPRLPRPRPRPTHGPRP | 0.547
119 | RRIRARPPRLPRPRPRPTRLPRP | 0.545
120 | RRIRIRPPRLPRPRPRPTYWPRP | -0.421
121 | RRIRFRPPRLPRPRPRPDFEPRP | 0.0453
122 | RRIRKRPPRLPRPRPRPWREPRP | 0.184
123 | RRIRLRPPRLPRPRPRPTNQPRP | -0.327
124 | RRIRTRPPRLPRPRPRPDMRPRP | -0.025
125 | RRIRDRPPRLPRPRPRPKRNPRP | 0.136
